Measured values from paper PMC3169412, “Structure of 3-ketoacyl-(acyl-carrier-protein) reductase from Rickettsia prowazekii at 2.25 Å resolution” (Acta Crystallographica Section F: Structural Biology and …, 2011).

Biological target: the molecule itself
Assay: crystal structure

B1: 3-ketoacyl-(acyl-carrier-protein) reductase (FabG) from Rickettsia prowazekii strain Madrid E (enzyme)
chain: MIDLTGKTSLITGASSGIGSAIARLLHKLGSKVIISGSNEEKLKSLGNALKDNYTIEVCNLANKEECSNLISKTSNLDILVCNAGITSDTLAIRMKDQDFDKVIDINLKANFILNREAIKKMIQKRYGRIINISSIVGIAGNPGQANYCASKAGLIGMTKSLSYEVATRGITVNAVAPGFIKSDMTDKLNEKQREAIVQKIPLGTYGIPEDVAYAVAFLASNNASYITGQTLHVNGGMLMV
notes: also called 3-ketoacyl-(ACP) reductase; 3-oxoacyl-(acyl-carrier-protein) reductase; not shown: His6, N-terminal, kept
stoichiometry N: 4
